Assay [1] concerns the target integrin α3β1 on HOK-16B cells (human (HOK-16B human oral keratinocytes)) (UniProt P26006). The assay can be described thus: cell-based or functional assay.
For assay [2], the target named is integrin α3β1 on HOK-16B cells (human (HOK-16B human oral keratinocytes), UniProt P26006 33-1051; P05556 21-798). The assay can be described thus: cell-based or functional assay.

The results in this text go back to patent US20080096792A1 (SEOUL NATIONAL UNIVERSITY INDUSTRY FOUNDATION, published 2008).

integrin α3β1 on HOK-16B cells (human (HOK-16B human oral keratinocytes)), sequence (P26006 33-1051, chain 1 of 2): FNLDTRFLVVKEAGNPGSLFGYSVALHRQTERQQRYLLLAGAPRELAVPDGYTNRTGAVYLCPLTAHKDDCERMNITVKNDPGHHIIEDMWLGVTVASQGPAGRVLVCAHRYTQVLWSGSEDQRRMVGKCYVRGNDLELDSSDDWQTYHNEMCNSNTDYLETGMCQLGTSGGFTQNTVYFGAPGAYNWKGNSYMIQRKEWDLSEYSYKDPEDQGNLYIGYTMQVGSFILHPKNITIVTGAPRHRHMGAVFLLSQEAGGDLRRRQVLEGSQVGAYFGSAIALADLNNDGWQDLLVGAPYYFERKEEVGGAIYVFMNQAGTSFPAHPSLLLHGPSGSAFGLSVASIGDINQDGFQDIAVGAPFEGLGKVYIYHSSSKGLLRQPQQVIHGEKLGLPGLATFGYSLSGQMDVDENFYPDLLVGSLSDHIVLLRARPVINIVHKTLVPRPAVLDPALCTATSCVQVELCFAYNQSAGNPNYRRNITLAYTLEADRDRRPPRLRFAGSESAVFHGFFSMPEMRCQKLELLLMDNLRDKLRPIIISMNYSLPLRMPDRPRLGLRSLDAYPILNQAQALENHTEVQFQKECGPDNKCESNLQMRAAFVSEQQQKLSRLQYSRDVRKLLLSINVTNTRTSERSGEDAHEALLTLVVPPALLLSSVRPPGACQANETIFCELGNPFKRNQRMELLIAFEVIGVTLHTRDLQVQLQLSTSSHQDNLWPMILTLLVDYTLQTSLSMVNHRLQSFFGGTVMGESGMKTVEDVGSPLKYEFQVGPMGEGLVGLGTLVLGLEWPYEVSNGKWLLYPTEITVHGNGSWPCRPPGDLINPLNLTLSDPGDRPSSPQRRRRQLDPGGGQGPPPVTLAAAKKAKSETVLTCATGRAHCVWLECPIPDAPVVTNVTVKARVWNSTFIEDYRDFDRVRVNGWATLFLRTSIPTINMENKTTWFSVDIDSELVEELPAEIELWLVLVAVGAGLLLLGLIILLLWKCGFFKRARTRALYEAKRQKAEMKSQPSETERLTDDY
integrin α3β1 on HOK-16B cells (human (HOK-16B human oral keratinocytes)), sequence (P05556 21-798, chain 2 of 2, further chain): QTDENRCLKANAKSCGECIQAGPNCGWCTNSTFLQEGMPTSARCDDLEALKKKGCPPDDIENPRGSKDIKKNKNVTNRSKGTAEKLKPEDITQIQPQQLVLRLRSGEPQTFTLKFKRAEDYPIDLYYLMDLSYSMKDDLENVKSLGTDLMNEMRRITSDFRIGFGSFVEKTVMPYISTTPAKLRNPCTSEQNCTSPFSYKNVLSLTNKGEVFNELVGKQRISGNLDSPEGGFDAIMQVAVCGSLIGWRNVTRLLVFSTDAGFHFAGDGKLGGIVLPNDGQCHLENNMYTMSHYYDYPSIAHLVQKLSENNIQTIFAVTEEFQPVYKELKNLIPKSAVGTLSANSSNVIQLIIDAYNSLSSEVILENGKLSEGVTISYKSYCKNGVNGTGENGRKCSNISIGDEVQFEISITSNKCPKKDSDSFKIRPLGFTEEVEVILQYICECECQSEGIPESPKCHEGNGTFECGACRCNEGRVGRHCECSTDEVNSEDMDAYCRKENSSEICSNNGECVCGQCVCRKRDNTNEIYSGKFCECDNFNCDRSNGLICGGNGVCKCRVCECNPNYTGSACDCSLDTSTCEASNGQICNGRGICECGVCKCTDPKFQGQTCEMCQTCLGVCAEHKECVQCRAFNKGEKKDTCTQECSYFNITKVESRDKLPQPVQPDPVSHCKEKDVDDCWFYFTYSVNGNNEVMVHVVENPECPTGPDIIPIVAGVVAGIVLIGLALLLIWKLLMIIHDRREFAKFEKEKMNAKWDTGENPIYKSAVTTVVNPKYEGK
integrin α3β1 on HOK-16B cells, sequence (P26006 33-1051, chain 1 of 2): as the sequence (P26006 33-1051, chain 1 of 2) above
integrin α3β1 on HOK-16B cells, sequence (P05556 21-798, chain 2 of 2): as the sequence (P05556 21-798, chain 2 of 2, further chain) above

Molecule human placental laminin (LN) (ligand) had an FAK phosphorylation at Tyr-397 in HOK-16B cells, fold induction compared with the untreated control in assay [1] of 16.2 fold.

B1: recombinant LG3 protein of the human laminin-5 α3 chain (rLG3-His6) (ligand)
chain: MRGSHHHHHHGMASMTGGQQMGRDLTDDDDKDPSSRSAAGTMEFDFVRLNDTVGVTKKCSEDWKLVRSASFSRGGQLSFTDLGLPPTDHLQASFGFQTFQPSGILLDHQTWTRNLQVTLEDGYIELSTSDSGGPIFKSPQTYMDGLLHYVSVISDNSGLRLLIDDQLLRNSKRLKHISSSRQSLRLGGSNFEGCISNVFVQRLSLSPEVLDLTSNSLKRDVSLGGCSLNKPPFLMLLKGSTRFNKTKTFRINQLLQDTPVASPRSVKVWQDACSPLPKTQANHESLVNSLLDPAANKARKVAELAAATAEQ
As to B1, the “FAK phosphorylation at Tyr-397 in HOK-16B cells, fold induction compared with the untreated control” value in assay [2] stood at 8.2 fold.
